Patent publication US20250340662A1 (AKIRAM THERAPEUTICS, published 2025)

T1: Human v6-peptide (human, N-terminal biotin)
T1 construct: Bachem #4108947, 43 amino acids, synthetic; also called Hm v6-peptide; hm v6-peptide
T1 peptide: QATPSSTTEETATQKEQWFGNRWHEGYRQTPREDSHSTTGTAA

T2: Cynomolgus v6-peptide (cynomolgus, UniProt A0A2K5VJE0 387-429, N-terminal biotin)
T2 construct: domain: v6-region (43 amino acids); also called Cm v6-peptide; cm v6-peptide
T2 peptide: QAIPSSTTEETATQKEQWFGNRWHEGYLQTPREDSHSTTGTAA


Key:
Human CD44 iso6-Fc = target: T3, Human CD44 iso6-Fc (human, UniProt P16070-6 21-606, limits assumed, chemically biotinylated in the form called Bio-CD44); assay: SPR SCK, antibody immobilised, CD44-Fc injected
T3 construct: Negative control antigen, ProMab, HKB11 cells; also called Bio-CD44; bio-CD44
T3 sequence (P16070 other isoform, or with tags, fused parts or gaps limits assumed): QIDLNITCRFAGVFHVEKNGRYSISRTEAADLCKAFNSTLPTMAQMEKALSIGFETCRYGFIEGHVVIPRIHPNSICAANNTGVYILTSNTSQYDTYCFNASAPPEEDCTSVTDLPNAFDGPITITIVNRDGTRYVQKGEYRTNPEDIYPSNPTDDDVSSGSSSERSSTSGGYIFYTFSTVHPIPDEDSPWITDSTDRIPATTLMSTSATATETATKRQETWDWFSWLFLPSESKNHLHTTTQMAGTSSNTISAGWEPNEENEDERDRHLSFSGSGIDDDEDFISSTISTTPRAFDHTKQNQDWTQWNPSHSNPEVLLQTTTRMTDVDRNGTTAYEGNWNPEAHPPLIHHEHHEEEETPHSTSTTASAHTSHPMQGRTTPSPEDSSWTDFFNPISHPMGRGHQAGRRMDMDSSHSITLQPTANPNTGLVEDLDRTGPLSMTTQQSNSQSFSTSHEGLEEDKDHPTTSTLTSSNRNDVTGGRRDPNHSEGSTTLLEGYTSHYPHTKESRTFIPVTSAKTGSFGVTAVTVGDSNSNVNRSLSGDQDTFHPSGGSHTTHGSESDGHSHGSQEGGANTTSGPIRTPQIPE
Procedure: (§1) The SPR measurements were performed on a BIAcore T200 instrument (Cytiva) using a SCK approach. Each antibody was directly immobilized onto a separate surface of a CM5 series S sensor chip using EDC/NHS amine coupling chemistry according to manufacturer's recommendations. Immobilization levels were set to 1500 RU. All experiments were performed at 25° C. in running buffer (HBS, 0.05% Tween20, pH 7.5). A three-fold dilution series of CD44v6 and negative control CD44, comprised of five concentrations ranging between 10-0.12 nM, were prepared in running buffer. A four-fold dilution series of human, cynomolgus and rabbit v6-peptide, respectively, comprised of five concentrations ranging between 100-0.39 nM, were also prepared in running buffer. Each dilution series were sequentially injected, starting with the lowest concentration first, over an immobilized antibody clone and chip surfaces were regenerated with 10 mM glycin-HCl, pH 2.1. See table 10 for specifications of antigens used in SPR measurements. By subtracting the response curve of a reference surface (an activated and deactivated chip surface) and to a blank run (running buffer injected instead of antigen) response curve sensorgrams were obtained. Data was analyzed using the Biacore T200 Evaluation 3.1 software and a 1:1 Langmuir binding model.

Human v6-peptide [1] = target: T1, Human v6-peptide; assay: SPR SCK, antibody immobilised, peptide injected
Procedure: as §1

Cynomolgus v6-peptide = target: T2, Cynomolgus v6-peptide; assay: SPR SCK, antibody immobilised, peptide injected
Procedure: as §1

Rabbit v6-peptide = target: T4, Rabbit v6-peptide (rabbit); assay: SPR SCK, antibody immobilised, peptide injected
T4 construct: domain: v6-region (43 amino acids); also called Rb v6-peptide; rb v6-peptide
Procedure: as §1

Human CD44v6 iso4-Fc [2] = target: T5, Human CD44v6 iso4-Fc (human, UniProt P16070-4 21-606, limits assumed, chemically biotinylated in the form called Bio-CD44v6); assay: SPR SCK, antibody immobilised, CD44v6-Fc injected
T5 construct: Custom ordered from ProMab, produced in HKB11 cells; The biotinylated and the plain form are kept as one molecule; also called Bio-CD44v6; bio-CD44v6
T5 sequence (P16070 other isoform, or with tags, fused parts or gaps limits assumed): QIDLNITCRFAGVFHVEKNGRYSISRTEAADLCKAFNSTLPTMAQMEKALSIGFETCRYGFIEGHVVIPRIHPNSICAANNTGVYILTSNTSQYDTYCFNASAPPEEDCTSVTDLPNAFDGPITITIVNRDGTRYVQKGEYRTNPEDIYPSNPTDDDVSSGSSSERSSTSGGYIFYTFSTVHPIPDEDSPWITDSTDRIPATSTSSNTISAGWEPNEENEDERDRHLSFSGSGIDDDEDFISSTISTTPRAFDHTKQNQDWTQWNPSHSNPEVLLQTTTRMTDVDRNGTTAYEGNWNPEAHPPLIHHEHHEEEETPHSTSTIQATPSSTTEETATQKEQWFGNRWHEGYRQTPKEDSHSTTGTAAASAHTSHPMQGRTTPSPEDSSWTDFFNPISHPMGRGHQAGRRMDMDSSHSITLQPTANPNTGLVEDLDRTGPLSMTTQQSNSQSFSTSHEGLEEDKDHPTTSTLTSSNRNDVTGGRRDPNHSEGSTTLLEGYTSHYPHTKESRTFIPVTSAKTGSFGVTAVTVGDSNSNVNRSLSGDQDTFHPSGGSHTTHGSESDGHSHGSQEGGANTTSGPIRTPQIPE
Procedure: as §1

Human CD44v6 iso4-Fc [3] = target: T5, Human CD44v6 iso4-Fc; assay: SPR SCK, antibody immobilised, CD44v6-Fc injected; apparent KD
Procedure: as §1

Human v6-peptide [4] = target: T1, Human v6-peptide; assay: SPR SCK, biotin-peptide on SA chip, antibody injected
Procedure: (§2) For kinetic measurements of human v6-peptide, a streptavidin (SA) sensor chip was used to immobilize the v6-peptide at approximately 20 RU. A five-fold dilution series of each antibody, consisting of five concentrations ranging between 50 nM-0.08 nM, were prepared in running buffer and sequentially injected over the chip surfaces.
(§3) All experiments were performed at 25° C. in running buffer (HBS supplemented with 0.05% Tween20, pH 7.5) and the chip surfaces were regenerated with 10 mM glycine-HCl, pH 2.1. By subtracting the response curve of a reference surface (an α-human Kappa antibody immobilized surface or a streptavidin immobilized surface) and to a blank run (running buffer injected instead of antigen or antibody) response curve sensorgrams were obtained. Data was analyzed using the Biacore T200 Evaluation 3.1 software and a 1:1 Langmuir binding model.

Human CD44v6 iso4-Fc [5] = target: T5, Human CD44v6 iso4-Fc; assay: SPR SCK, antibody captured via anti-kappa, CD44v6-Fc injected
Procedure: (§4) Kinetic measurements were performed on a BIAcore T200 instrument (Cytiva) using a SCK approach. An α-human Kappa antibody (GE Healthcare #28958325), functioning as a capture ligand, was immobilized onto all four surfaces of a CM5-S amine sensor chip according to manufacturer's recommendations. Antibodies were injected and captured at equal response units (RU). A four-fold dilution series of CD44v6, consisting of five concentrations ranging between 80 nM-0.3 nM, were prepared in running buffer and sequentially injected over the chip surfaces. Single injections of 100 nM CD44 (negative control) was also performed.
as §3

Human v6-peptide [6] = target: T1, Human v6-peptide; assay: SPR SCK, biotin-peptide on SA chip, antibody injected; apparent KD
Procedure: as §2, §3

Human CD44v6 iso4-Fc [7] = target: T5, Human CD44v6 iso4-Fc; assay: SPR SCK, antibody captured via anti-kappa, CD44v6-Fc injected; apparent KD
Procedure: as §4, §3

Row | Binder | binding result (Human CD44 iso6-Fc) | Kd (Human v6-peptide [1]) | koff (Human v6-peptide [1]) | kon (Human v6-peptide [1]) | Kd (Cynomolgus v6-peptide) | koff (Cynomolgus v6-peptide) | kon (Cynomolgus v6-peptide) | Kd (Rabbit v6-peptide) | koff (Rabbit v6-peptide) | kon (Rabbit v6-peptide) | koff (Human CD44v6 iso4-Fc [2]) | kon (Human CD44v6 iso4-Fc [2]) | Kd (Human CD44v6 iso4-Fc [3]) | koff (Human v6-peptide [4]) | kon (Human v6-peptide [4]) | koff (Human CD44v6 iso4-Fc [5]) | kon (Human CD44v6 iso4-Fc [5]) | Kd (Human v6-peptide [6]) | Kd (Human CD44v6 iso4-Fc [7])
1 | AL-MN114-132 IgG1 LALA (antibody, V domains shown, item 20 iii) gives heavy 77 / light 96 without naming the format) VH: EVQLLESGGGLVQPGGSLRLSCAASGFTFSSYAMSWVRQAPGKGLEWVSAISGGGSSTYYADSVKGRFTISRDNSKNTLYLQMNSLRAEDTAVYYCARHYYSDSDYRSSAAMDYWGQGTLVTVSS VL: DIQMTQSPSSLSASVGDRVTITCRASQSISSYLNWYQQKPGKAPKLLIYAASSLQSGVPSRFSGSGSGTDFTLTISSLQPEDFATYYCQQDLYLLTFGQGTKLEIK | no binding (tested: 10 nM highest CD44 concentration) | 12 nM | 0.013 s⁻¹ | 1.1e+06 M⁻¹ s⁻¹ | 7.3 nM | 0.0096 s⁻¹ | 1.3e+06 M⁻¹ s⁻¹ | 13 nM | 0.023 s⁻¹ | 1.7e+06 M⁻¹ s⁻¹ | 0.00012 s⁻¹ | 1.9e+06 M⁻¹ s⁻¹ | 0.062 nM |  |  |  |  |  | 
2 | AL-MN114-132 IgG1 LALA IAHA (antibody, V domains shown, Human IgG1 LALA IAHA, kappa) VH: EVQLLESGGGLVQPGGSLRLSCAASGFTFSSYAMSWVRQAPGKGLEWVSAISGGGSSTYYADSVKGRFTISRDNSKNTLYLQMNSLRAEDTAVYYCARHYYSDSDYRSSAAMDYWGQGTLVTVSS VL: DIQMTQSPSSLSASVGDRVTITCRASQSISSYLNWYQQKPGKAPKLLIYAASSLQSGVPSRFSGSGSGTDFTLTISSLQPEDFATYYCQQDLYLLTFGQGTKLEIK | no binding (tested: 10 nM highest CD44 concentration) | 22 nM | 0.016 s⁻¹ | 730000 M⁻¹ s⁻¹ | 17 nM | 0.014 s⁻¹ | 860000 M⁻¹ s⁻¹ | 37 nM | 0.037 s⁻¹ | 990000 M⁻¹ s⁻¹ | 0.00021 s⁻¹ | 140000 M⁻¹ s⁻¹ | 1.5 nM |  |  |  |  |  | 
3 | U-MN114-19 IgG1 LALA IAHA (antibody, V domains shown, also called parental clone U-MN114-19) VH: not shown VL: DIQMTQSPSSLSASVGDRVTITCRASQSISSYLNWYQQKPGKAPKLLIYAASSLQSGVPSRFSGSGSGTDFTLTISSLQPEDFATYYCQQDLYLLTFGQGTKLEIK | no binding (tested: 10 nM highest CD44 concentration) | 17 nM | 0.019 s⁻¹ | 1.1e+06 M⁻¹ s⁻¹ | 20 nM | 0.034 s⁻¹ | 1.7e+06 M⁻¹ s⁻¹ | 31 nM | 0.067 s⁻¹ | 2.2e+06 M⁻¹ s⁻¹ | 0.00012 s⁻¹ | 2.5e+06 M⁻¹ s⁻¹ | 0.05 nM |  |  |  |  |  | 
4 | U-MN114-19 IgG4 S228P (antibody, V domains shown, Human IgG4 S228P (EU), kappa; also called MN19; parental clone) VH: not shown VL: DIQMTQSPSSLSASVGDRVTITCRASQSISSYLNWYQQKPGKAPKLLIYAASSLQSGVPSRFSGSGSGTDFTLTISSLQPEDFATYYCQQDLYLLTFGQGTKLEIK |  |  |  |  |  |  |  |  |  |  |  |  |  | 0.00018 s⁻¹ | 730000 M⁻¹ s⁻¹ | 0.001 s⁻¹ | 320000 M⁻¹ s⁻¹ | 0.28 nM | 3.3 nM
5 | U-MN114-19 IgG1 LALA (antibody, V domains shown, item 20 xxi) gives heavy 149 / light 150 without naming the format; also called parental clone U-MN114-19) VH: not shown VL: DIQMTQSPSSLSASVGDRVTITCRASQSISSYLNWYQQKPGKAPKLLIYAASSLQSGVPSRFSGSGSGTDFTLTISSLQPEDFATYYCQQDLYLLTFGQGTKLEIK | no binding (tested: 10 nM highest CD44 concentration) | 58 nM | 0.049 s⁻¹ | 830000 M⁻¹ s⁻¹ | 44 nM | 0.046 s⁻¹ | 1e+06 M⁻¹ s⁻¹ | 79 nM | 0.15 s⁻¹ | 2e+06 M⁻¹ s⁻¹ | 0.00015 s⁻¹ | 130000 M⁻¹ s⁻¹ | 1.2 nM |  |  |  |  |  | 
6 | AL-MN114-465 IgG1 LALA IAHA (antibody, V domains shown, Human IgG1 LALA IAHA, kappa) VH: EVQLLESGGGLVQPGGSLRLSCAASGFSFGSYAMSWVRQAPGKGLEWVSAISAGGSSTFYADSVKGRFTISRDNSKNTLYLQMNSLRAEDTAVYYCARHYYSDSDYRSSAAMDYWGQGTLVTVSS VL: DIQMTQSPSSLSASVGDRVTITCRASQSISSYLNWYQQKPGKAPKLLIYTASSLQSGVPSRFSGSGSGTDFTLTISSLQPEDFATYYCQQDLYLLTFGQGTKLEIK | no binding (tested: 10 nM highest CD44 concentration) | 14 nM | 0.0093 s⁻¹ | 680000 M⁻¹ s⁻¹ | 13 nM | 0.0085 s⁻¹ | 680000 M⁻¹ s⁻¹ | 19 nM | 0.015 s⁻¹ | 830000 M⁻¹ s⁻¹ | 0.00027 s⁻¹ | 170000 M⁻¹ s⁻¹ | 1.6 nM |  |  |  |  |  | 
7 | AL-MN114-71 IgG1 LALA IAHA (antibody, V domains shown, Human IgG1 LALA IAHA, kappa) VH: EVQLLESGGGLVQPGGSLRLSCAASGFSFRSFAMSWVRQAPGKGLEWVSAISGGGSSTFYADSVKGRFTISRDNSKNTLYLQMNSLRAEDTAVYYCARHYYSDSDYRSSAAMDYWGQGTLVTVSS VL: DIQMTQSPSSLSASVGDRVTITCRASQSISSYLNWYQQKPGKAPKLLIYAASTLQSGVPSRFSGSGSGTDFTLTISSLQPEDFATYYCQQDLYLLTFGQGTKLEIK | no binding (tested: 10 nM highest CD44 concentration) | 17 nM | 0.011 s⁻¹ | 620000 M⁻¹ s⁻¹ | 13 nM | 0.0095 s⁻¹ | 710000 M⁻¹ s⁻¹ | 22 nM | 0.016 s⁻¹ | 710000 M⁻¹ s⁻¹ | 0.00026 s⁻¹ | 230000 M⁻¹ s⁻¹ | 1.1 nM |  |  |  |  |  | 
8 | AL-MN114-444 IgG1 LALA IAHA (antibody, V domains shown, Human IgG1 LALA IAHA, kappa) VH: EVQLLESGGGLVQPGGSLRLSCAASGFTFRSFAMSWVRQAPGKGLEWVSAISGGGSSTFYADSVKGRFTISRDNSKNTLYLQMNSLRAEDTAVYYCARHYYSDSDYRSSAAMDYWGQGTLVTVSS VL: DIQMTQSPSSLSASVGDRVTITCRASQSIGSYLNWYQQKPGKAPKLLIYSASSLQSGVPSRFSGSGSGTDFTLTISSLQPEDFATYYCQQDLYLLTFGQGTKLEIK | no binding (tested: 10 nM highest CD44 concentration) | 12 nM | 0.0083 s⁻¹ | 710000 M⁻¹ s⁻¹ | 11 nM | 0.0079 s⁻¹ | 720000 M⁻¹ s⁻¹ | 15 nM | 0.012 s⁻¹ | 820000 M⁻¹ s⁻¹ | 0.00032 s⁻¹ | 320000 M⁻¹ s⁻¹ | 1 nM |  |  |  |  |  | 
